Measurements reported in PMC9023295, “NMR-derived secondary structure of the full-length Ox40 mRNA 3′UTR and its multivalent binding to the immunoregulatory RBP Roquin” (Nucleic Acids Research, 2022).

Legend:
[1] = target: T1, Roquin-1 extROQ (mouse, UniProt Q4VGL6 89-404); test: EMSA; details: EMSA: 150 mM NaCl, 20 mM Tris pH 7.0, 2 mM TCEP, 1 mM MgCl2, 0.6 ug yeast tRNAPhe per 20 ul, 15 min, temperature not stated, gel in 1x TB
T1 sequence: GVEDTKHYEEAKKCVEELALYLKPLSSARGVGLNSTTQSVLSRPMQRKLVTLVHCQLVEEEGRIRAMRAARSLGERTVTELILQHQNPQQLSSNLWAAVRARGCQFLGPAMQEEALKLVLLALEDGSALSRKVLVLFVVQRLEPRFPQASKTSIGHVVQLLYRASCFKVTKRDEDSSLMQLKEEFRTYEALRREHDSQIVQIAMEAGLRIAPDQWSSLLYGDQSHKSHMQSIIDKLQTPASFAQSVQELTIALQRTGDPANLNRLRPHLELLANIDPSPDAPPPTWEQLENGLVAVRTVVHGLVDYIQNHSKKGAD

[2] = target: T2, Roquin-1 coreROQ (mouse, UniProt Q4VGL6 171-326); test: EMSA; details: EMSA: 150 mM NaCl, 20 mM Tris pH 7.0, 2 mM TCEP, 1 mM MgCl2, 0.6 ug yeast tRNAPhe per 20 ul, 15 min, temperature not stated, gel in 1x TB
T2 sequence: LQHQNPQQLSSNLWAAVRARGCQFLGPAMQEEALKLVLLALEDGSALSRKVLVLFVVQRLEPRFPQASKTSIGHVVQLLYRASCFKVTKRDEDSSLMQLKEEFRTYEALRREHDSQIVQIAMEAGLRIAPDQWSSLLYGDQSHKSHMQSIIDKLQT

[3] = test system: Roquin-1 N-term A-site mutant (Amut) (mouse); test: EMSA; details: EMSA: 150 mM NaCl, 20 mM Tris pH 7.0, 2 mM TCEP, 1 mM MgCl2, 0.6 ug yeast tRNAPhe per 20 ul, 15 min; temperature not stated; gel in 1x TB
[4] = test system: Roquin-1 N-term (mouse); test: EMSA; details: first binding event; EMSA: 150 mM NaCl, 20 mM Tris pH 7.0, 2 mM TCEP, 1 mM MgCl2, 0.6 ug yeast tRNAPhe per 20 ul, 15 min; temperature not stated; gel in 1x TB
[5] = target: T1, Roquin-1 extROQ; test: EMSA; 2:1 stoichiometry; EMSA: 150 mM NaCl, 20 mM Tris pH 7.0, 2 mM TCEP, 1 mM MgCl2, 0.6 ug yeast tRNAPhe per 20 ul, 15 min; temperature not stated; gel in 1x TB; details: protein: recombinant; tags: tag removed by TEV; label: 5' 32P (EMSA)
[6] = target: T1, Roquin-1 extROQ; test: EMSA; triplicate; EMSA: 150 mM NaCl, 20 mM Tris pH 7.0, 2 mM TCEP, 1 mM MgCl2, 0.6 ug yeast tRNAPhe per 20 ul, 15 min; temperature not stated; gel in 1x TB; details: protein: recombinant; tags: tag removed by TEV; label: 5' 32P (EMSA); hairpin, apical hexaloop
[7] = target: T2, Roquin-1 coreROQ; test: as above; details: protein: recombinant; tags: tag removed by TEV; label: 5' 32P (EMSA); hairpin, apical hexaloop
[8] = target: T1, Roquin-1 extROQ; test: EMSA; single binding event; EMSA: 150 mM NaCl, 20 mM Tris pH 7.0, 2 mM TCEP, 1 mM MgCl2, 0.6 ug yeast tRNAPhe per 20 ul, 15 min; temperature not stated; gel in 1x TB; details: protein: recombinant, tags: tag removed by TEV, label: 5' 32P
[9] = target: the molecule itself; test: SAXS; protein alone, concentration series 50, 100, 200, 300 uM; 150 mM NaCl, 20 mM Tris pH 7.0, 2 mM TCEP; 293 K; molecular weight by the Bayesian approach; monomer to dimer
[10] = target: T1, Roquin-1 extROQ; test: EMSA; two-step, comparable to WT ADE-CDE; EMSA: 150 mM NaCl, 20 mM Tris pH 7.0, 2 mM TCEP, 1 mM MgCl2, 0.6 ug yeast tRNAPhe per 20 ul, 15 min; temperature not stated; gel in 1x TB; details: protein: recombinant; tags: tag removed by TEV; label: 5' 32P; two hairpins

Ox40 CDE
Kd ([1]; triplicate): 149 nM
Kd ([2]; triplicate): 460 nM

Ox40 tandem ADE-CDE
Kd ([1]; first binding event): 59 nM
Kd ([1]; second binding event): 180 nM
Kd ([2]; transitions not resolved): 379 nM
Kd [3]: 593 nM
Kd [4]: 78 nM

B1: Ox40 full-length 3'UTR (structured_RNA)
RNA: GCAUUACUACAGGAGUGGAUUUUAUGGGGCACGGACAACCCAUAUCCUGAUGCCUGCCAGUACCCUCCACACCGUUCUAGGUGCUGGGCUGGCUCUGGGCUUUCCUAUGUAUGCUAUGCAUACUACCUGCCUGGUGGUGCUCCUAAUAAACAUGCUA
Kd [5]: 63 ± 9 nM

B2: Ox40 ADE (structured_RNA)
RNA: GCCUGCCAGUACCCUCCACACCGUUCUAGGUGCUGGGCUGGCUCUGGGC
Kd [6]: 171 ± 17 nM
Kd [7]: 232 ± 29 nM

B3: extCDE (structured_RNA)
RNA: GUAUUUAUGAUUUCCUAUGUAUGCUAUGCAUACUAC
Kd ([8]; 5' single strand plus hairpin): ~50 nM

B4: Roquin-1 amino-terminal part (N-term, residues 1-454) (domain or fragment, murine, UniProt Q4VGL6 1-454, looked up)
chain: MPVQAPQWTDFLSCPICTQTFDETIRKPISLGCGHTVCKMCLNKLHRKACPFDQTTINTDIELLPVNSALLQLVGAQIPEQQPITLCSGVEDTKHYEEAKKCVEELALYLKPLSSARGVGLNSTTQSVLSRPMQRKLVTLVHCQLVEEEGRIRAMRAARSLGERTVTELILQHQNPQQLSSNLWAAVRARGCQFLGPAMQEEALKLVLLALEDGSALSRKVLVLFVVQRLEPRFPQASKTSIGHVVQLLYRASCFKVTKRDEDSSLMQLKEEFRTYEALRREHDSQIVQIAMEAGLRIAPDQWSSLLYGDQSHKSHMQSIIDKLQTPASFAQSVQELTIALQRTGDPANLNRLRPHLELLANIDPSPDAPPPTWEQLENGLVAVRTVVHGLVDYIQNHSKKGADQQQPPQHSKYKTYMCRDMKQRGGCPRGASCTFAHSQEELEKFRKMNKRLV
notes: Roquin-1, murine, structured amino-terminal part with RING, ROQ and ZnF domains, residues 1-454 (theoretical MW 51.09 kDa); also called Roquin N-term; WT N-term; source: E. coli BL21 (DE3), expressed with 100 uM ZnCl2, purified (Ni-NTA, TEV cleavage, reverse Ni-NTA, SEC)
binding result [9]: binds

B5: Bulge-CDE (structured_RNA)
RNA: GGAUUUUAUGGGGCACGGACAACCCAUAUCCUGAUUUUCCUAUGUAUGCUAUGCAUACUAC
Kd [8]: ~70.7 nM

B6: ADE-u-CDE (structured_RNA)
RNA: GCCUGCCAGUACCCUCCACACCGUUCUAGGUGCUGGGCUGGCUCUGGGCUGUAUGCUAUGCAUACUAC
binding result [10]: binds
